Our source for the Average Ligand Stimulated Activity (Light Emission), SRE-Luc + Gq5i luciferase reporter in HEK293 cells (light emission) values is patent publication US20020127539A1, “Assays for identifying receptors having alterations in signaling” (priority 2000, published 2002).

Experiment [1] deals with Asn150Ala mutant rat mu opioid receptor (rat). Description: cell-based or functional assay.
The target in experiment [2] is wild-type rat mu opioid receptor (rat). As to the kind of experiment: cell-based or functional assay.

With “[D-Ala2-MePhe4, Gly-ol5]enkephalin (peptide)”, the results for the Average Ligand Stimulated Activity (Light Emission), SRE-Luc + Gq5i luciferase reporter in HEK293 cells (light emission) in experiment [1] and in experiment [2] were 87000 and 87500, respectively.
